Experimental data taken from article PMC11360004.

How the values were obtained:
[1] = biological target: α/β importin complex labeled with Cy3 (UniProt Q14974); assay: MST; Cy3-labeled β-importin in the α/β importin complex at constant concentration, MNT titrated; 20 mM HEPES, 110 mM KCl, 5 mM NaHCO3, 5 mM MgCl2, 0.1 mM CaCl2, 1 mM EGTA, 1 mM DTT, pH 7.4
[2] = biological target: Kelch-like ECH-associated protein 1 (Keap1), Cy3-labeled (UniProt Q14145); assay: MST; Monolith NT.115; Cy3-labeled Keap1 at constant concentration, MNT titrated; 25 mM sodium phosphate, 150 mM NaCl, pH 8.0
[3] = biological target: epidermal growth factor receptor (EGFR) on A431 cells (human (endogenous in A431)) (UniProt P00533); assay: fluorescent-labeled ligand competitive binding on cells (plate reader); A431 cells fixed with 0.5% paraformaldehyde in 48-well plates; 25 nM Alexa-647-labeled MNT1 and different concentrations of MNTC or MNTN; DMEM with 1% BSA, 15 mM HEPES, pH 7.3, overnight at +4 °C

UniProt Q14145, sequence (Q14145 whole entry): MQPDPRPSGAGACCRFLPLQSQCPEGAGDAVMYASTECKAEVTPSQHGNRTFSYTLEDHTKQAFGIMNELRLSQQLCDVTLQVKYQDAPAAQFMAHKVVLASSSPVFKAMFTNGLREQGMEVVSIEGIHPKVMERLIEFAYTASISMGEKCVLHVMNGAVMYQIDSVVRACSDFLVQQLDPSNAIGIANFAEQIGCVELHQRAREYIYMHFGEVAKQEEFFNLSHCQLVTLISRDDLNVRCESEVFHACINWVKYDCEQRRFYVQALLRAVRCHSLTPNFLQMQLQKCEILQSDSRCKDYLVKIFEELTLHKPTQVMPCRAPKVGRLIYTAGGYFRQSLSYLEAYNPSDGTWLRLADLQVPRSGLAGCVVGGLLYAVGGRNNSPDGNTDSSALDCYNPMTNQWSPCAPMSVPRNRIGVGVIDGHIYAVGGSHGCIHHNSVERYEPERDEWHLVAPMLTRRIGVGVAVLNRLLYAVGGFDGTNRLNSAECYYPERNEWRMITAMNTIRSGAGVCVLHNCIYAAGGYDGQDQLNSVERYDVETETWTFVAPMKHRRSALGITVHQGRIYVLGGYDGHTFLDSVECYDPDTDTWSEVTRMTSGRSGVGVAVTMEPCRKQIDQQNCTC
UniProt Q14974, sequence (Q14974 whole entry, looked up, one chain of several): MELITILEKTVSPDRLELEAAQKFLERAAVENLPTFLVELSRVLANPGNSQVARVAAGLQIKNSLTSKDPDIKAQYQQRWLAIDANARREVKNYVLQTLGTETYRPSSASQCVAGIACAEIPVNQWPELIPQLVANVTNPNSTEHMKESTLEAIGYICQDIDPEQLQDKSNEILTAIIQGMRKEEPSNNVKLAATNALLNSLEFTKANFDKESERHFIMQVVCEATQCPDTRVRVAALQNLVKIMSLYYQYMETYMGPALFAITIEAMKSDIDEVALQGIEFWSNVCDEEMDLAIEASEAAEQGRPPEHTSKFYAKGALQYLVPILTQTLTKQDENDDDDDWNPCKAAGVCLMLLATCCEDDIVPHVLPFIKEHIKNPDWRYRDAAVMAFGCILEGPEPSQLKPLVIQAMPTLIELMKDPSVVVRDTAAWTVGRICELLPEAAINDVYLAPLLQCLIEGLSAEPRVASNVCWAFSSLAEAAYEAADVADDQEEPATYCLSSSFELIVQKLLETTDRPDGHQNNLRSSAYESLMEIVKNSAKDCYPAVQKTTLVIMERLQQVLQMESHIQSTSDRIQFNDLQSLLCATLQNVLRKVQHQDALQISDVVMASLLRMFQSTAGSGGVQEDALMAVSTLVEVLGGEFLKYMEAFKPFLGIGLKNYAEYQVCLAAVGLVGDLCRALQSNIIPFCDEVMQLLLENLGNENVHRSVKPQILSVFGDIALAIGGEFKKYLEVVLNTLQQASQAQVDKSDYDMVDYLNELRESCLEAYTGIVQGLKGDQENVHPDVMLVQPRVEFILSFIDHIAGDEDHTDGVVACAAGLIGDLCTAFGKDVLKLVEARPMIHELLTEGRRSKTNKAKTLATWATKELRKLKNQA

Substance | Kd [1] [nM] | Kd [2] [nM] | Kd [3] [nM]
DTox-HMPN-NLS-EGF (modular nanotransporter with the N-terminal fragment of HMP) (from UniProt P24232 1-136) | 160 | 428 | 20
DTox-HMP-NLS-EGF (original modular nanotransporter with full-size HMP carrier module) (from UniProt P24232 1-396) |  | 205 | 
